Experimental data reported in patent US20230020729A1 (Memorial Sloan Kettering, published 2023).
Changes are numbered by the printed parent chain.

T1: human Fc Receptor-Like 5 (FcRL5), full length, expressed on cells (human, UniProt Q96RD9 16-977)
T1 construct: also called CD307e; IRTA2
T1 sequence: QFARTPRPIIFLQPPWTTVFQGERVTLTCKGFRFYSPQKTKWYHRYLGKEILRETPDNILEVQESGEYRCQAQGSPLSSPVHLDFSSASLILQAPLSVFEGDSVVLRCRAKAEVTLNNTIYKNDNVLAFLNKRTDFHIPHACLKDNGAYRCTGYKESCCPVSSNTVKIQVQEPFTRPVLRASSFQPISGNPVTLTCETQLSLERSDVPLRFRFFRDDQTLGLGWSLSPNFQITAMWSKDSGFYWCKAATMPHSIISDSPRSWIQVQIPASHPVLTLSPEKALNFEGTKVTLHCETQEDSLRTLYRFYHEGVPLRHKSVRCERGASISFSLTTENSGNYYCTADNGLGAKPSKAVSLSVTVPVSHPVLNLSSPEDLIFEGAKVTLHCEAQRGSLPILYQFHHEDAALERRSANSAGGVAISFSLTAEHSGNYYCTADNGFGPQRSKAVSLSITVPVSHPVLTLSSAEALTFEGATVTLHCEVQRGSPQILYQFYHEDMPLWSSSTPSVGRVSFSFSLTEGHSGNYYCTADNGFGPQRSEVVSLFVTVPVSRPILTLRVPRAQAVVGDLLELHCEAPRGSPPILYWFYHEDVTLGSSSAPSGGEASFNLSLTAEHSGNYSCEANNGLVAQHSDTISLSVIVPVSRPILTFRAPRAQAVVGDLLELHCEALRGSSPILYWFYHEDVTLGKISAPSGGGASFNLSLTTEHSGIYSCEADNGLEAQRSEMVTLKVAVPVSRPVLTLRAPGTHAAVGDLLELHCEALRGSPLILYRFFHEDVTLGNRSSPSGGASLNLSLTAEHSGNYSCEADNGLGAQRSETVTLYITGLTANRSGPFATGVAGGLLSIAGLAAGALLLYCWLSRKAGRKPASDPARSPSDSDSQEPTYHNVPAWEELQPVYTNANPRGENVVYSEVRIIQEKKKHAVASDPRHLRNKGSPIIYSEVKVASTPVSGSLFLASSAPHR

B1: ET200-015 scFv (scFv)
scFv: QSVVTQPPSVSVAPGKTARITCGGNNIGSKSVHWYQQKPGQAPVLVIYYDSDRPSGIPERFSGSNSGNTATLTISRVEAGDEADYYCQVWDSSSDVVFGGGTKLTVLGSRGGGGSGGGGSGGGGSLEMAEVQLVQSGAEVKKPGASVKVSCKASGYTFTSYGISWVRQAPGQGLEWMGWISAYNGNTNYAQKLQGRVTMTTDTSTSTAYMELRSLRSDDTAVYYCARWGGFGAVDHWGQGTLVTVSS
notes: VL-linker-VH; screened as scFv phage clone
B2: ET200-014 scFv (scFv)
scFv: SYVLTQPPSVSVAPGKTARITCGGNNIGSKSVHWYQQKPGQAPVLVIYYDSDRPSGIPERFSGSNSGNTATLTISRVEAGDEADYYCQVWDSSSDHYVFGTGTKVTVLGSRGGGGSGGGGSGGGGSLEMAEVQLVETGGGLVQPGGSLRLSCAASGFTFSSYAMSWVRQAPGKGLEWVSAISGSDGSTYYADSVKGRFTISRDNSKNTLYLQMNSLRDEDTAVYYCARSHEANLVGDWWGQGTLVTVSS
notes: as for B1
B3: ET200-020 scFv (scFv)
scFv: QSVVTQPPSVSAAPGQKVTISCSGSTSNIGNNDVSWYQQLPGTAPKLLIYDNNKRPSGIPDRFSGSKSGTSATLGITGLQTGDEADYYCGTWDSSVSASWVFGRGTKLTVLGSRGGGGSGGGGSGGGGSLEMAQVQLVQSGAEVKKPGASVKVSCKASGYTFTSYGISWVRQAPGQGLEWMGWISAYNGNTNYPQKLQGRVTMTTDPSTSTAYMELRSLRSDDTAVYYCARSMTSFDYWGQGTLVTVSS
notes: as for B1
B4: ET200-013 scFv (scFv)
scFv: QSVVTQPPSVSGAPGQRVTISCTGSTSNIGAGYDVHWYQQLPGTAPKLLIYTNNFRPSGVPDRFSASKSGTSASLAITGLQAEDEADYYCGTWDSSLSAVVFGGGTKLTVLGSRGGGGSGGGGSGGGGSLEMAEVQLVESGTEVKKPGASVKVSCKASGYMFTSYGLNWVRQAPGQGLEWMGWISANNGKTNYAKKFQDRVTMTRDTSTSTGYMELRSLRSDDTAVYYCARHIGGSYFDRWGQGTLVTVSS
notes: as for B1
B5: ET200-021 scFv (scFv)
scFv: QSVLTQPPSVSAAPGQKVTISCSGSNSNIGNNYVSWYQQLPGTAPKLLIYDNNKRPSGIPDRFSGSRSGTSATLGITGLQTGDEADYYCGTWNTTVTPGYVFGTGTKVTVLGSRGGGGSGGGGSGGGGSLEMAEVQLVQSGAEVKKPGASVKVSCKASGYTFTSYGISWVRQAPGQGLEWMGWISAYNGNTNYAQKLQGRVTMTTDTSTSTAYMELRSLRSDDTAMYYCARSVYDLDTWGQGTLVTVSS
notes: as for B1
B6: ET200-023 scFv (scFv)
scFv: LPVLTQPPSVSVAPGKTARITCGGNNIGSKSVHWYQQKPGQAPVLVVYADSDRPSGIPERFSGSNSGNTATLTISRVEAGDEADYYCQVWDSSSYHNYVFGTGTKVTVLGSRGGGGSGGGGSGGGGSLEMAEVQLVQSGAEVKKPGASVKVSCKASGYTFTSYGISWVRQAPGQGLEWMGWISAYNGNTNYAQKLQGRVTMTTDTSTSTAYMELSSLRSEDTAMYYCARYWGFGVSDRWGQGTLVTVSS
notes: as for B1
B7: ET200-039 scFv (scFv)
scFv: NFMLTQPHSVSESPGKTVTISCTRSSGSIASNYVQWYQQRPGSSPTTVIYEDNQRPSGVPDRFSGSIDSSSNSASLTISGLKTEDEADYYCQSYDSSNWVFGGGTKLTVLGSRGGGGSGGGGSGGGGSLEMAEVQLVQSGAEVKKPGSSVKVSCKASGGTFSSYAISWVRQAPGQGLEWMGGIIPIFGTANYAQKFQGRVTITADESTSTAYMELSSLRSEDTAVYYCARSNYYYNDYWGQGTLVTVSS
notes: VL-linker-VH; screened as scFv phage clone; also called ET200-39
B8: ET200-035 scFv (scFv)
scFv: B7 scFv with S44A, S97T, E133Q, S231Y, Y235F
notes: as for B1
B9: ET200-026 scFv (scFv)
scFv: B7 scFv with R24G, S44A, S231N, Y233H
notes: as for B1
B10: ET200-019 scFv (scFv)
scFv: NFMLTQPHSVSESPGKTVTISCTRSSGSIASNYVQWYQQRPGSAPTTVIYEDNQRPSGVPDRFSGSIDSSSNSASLTISGLKTEDEADYYCQSYDSSNSWVFGGGTKLTVLGSRGGGGSGGGGSGGGGSLEMAQVQLVQSGAEVKRPGSSVKVSCTASGGTFSSDAISWVRQAPGQGLEWMGGIIPMFGTANYAQKFQGRVTITADESTSTAYMELSSLRSEDTAVYYCAREGYYYPSAYLGSVLNDISSVYDEWGQGTLVTVSS
notes: as for B1
B11: ET200-002 scFv (scFv)
scFv: NFMLTQPHSVSESPGKTVTISCTRSSGSIASNYVQWYQQRPGSAPTTVIYEDNQRPSGVPDRFSGSIDSSSNSASLTISGLKTEDEADYYCQSYDSSNSVVFGGGTKLTVLGSRGGGGSGGGGSGGGGSLEMAQVQLVQSGTEVKKPGASVRVACKASGYPFNKYDINWVRQAPGQGLEWMGGIIPIFRTTNYAQKFQGRVTITADESTSTAYMELSSLRSEDTAVYYCAREWFYWDIWGQGTLVTVSS
notes: as for B1
B12: ET200-016 scFv (scFv)
scFv: SSELTQDPAVSVALGQTVKITCQGDSLTDYHATWYQQKPGQAPVAVIYATNNRPTGIPDRFSGSSSGNTASLTITGAQAEDEADYYCNSRDSGTDEVLFGGGTKLTVLGSRGGGGSGGGGSGGGGSLEMAEVQLVETGGGLVKPGGSLRLSCAASGFTFSSYSMNWVRQAPGKGLEWVSSISSSSSYIYYADSVKGRFTISRDNAKNSLYLQMNSLRAEDTAVYYCARGQGYDYWGQGTLVTVSS
notes: as for B1
B13: ET200-022 scFv (scFv)
scFv: QSVVTQPPSVSAAPGQKVTISCSGSSSNIGNNYVSWYQQLPGTAPKLLIYDNNKRPSGIPDRFSGSKSGTSATLGITGLQTGDEADYYCGTWDSSLGAPYVFGTGTKVTVLGSRGGGGSGGGGSGGGGSLEMAEVQLVQSWGGSEQPGRSLRLSCAASGFTFDDYAMHWVRQAPGKGLEWVSGISWNSGSIGYADSVKGRFTISRDNAKNSLYLQMNSLRAEDTAMYYCARYRQVGSAYDSWGQGTLVTVSS
notes: as for B1
B14: ET200-018 scFv (scFv)
scFv: QAVLTQPPSTSGTPGQRVTISCSGSSSNIGRNGVNWYQQLPGAAPKVLIYNDNQRPSGVPDRVSGSQSGSSGTLAIDGLRSEDEADYYCAAWDDSLHGVVFGGGTKLTVLGSRGGGGSGGGGSGGGGSLEMAQVQLVQSGAEVKKPGASVKVSCKVSGYTLNELSMHWVRQAPGKGLEWMGGFDPEDGETIYAQKFQGRVTMTEDTSTDTAYMELSSLRSEDTAVYYCARGGYGDSWGQGTLVTVSS
notes: as for B1
B15: ET200-012 scFv (scFv)
scFv: QSVLTQPPSVSAAAGQKVTISCSGSDSNIGNNYVSWYQHLPGTAPKLLIYDVKNRPSGIPDRFSGSKSGSSATLGIAGLQPGDEADYYCGTWDSRLDAYVFGTGTKVTVLGSRGGGGSGGGGSGGGGSLEMAQMQLVQSGAEVKKPGASVKVSCKTSGFPFNIFGITWVRQAPGQGLEWMGWISGYNGNTDYPQKFQGRVTMSTDTSTSTAYMELRNLKSDDTAVYYCARGAYGGMDTWGQGTLVTVSS
notes: as for B1
B16: ET200-017 scFv (scFv)
scFv: SYVLTQPPSVSVAPGKTARITCGGNNIGSKSVHWYQQKPGQAPVLVVYDDSDRPSGIPERFSGSNSGNTATLSISRVEAGDEADYYCQVWDSSSDHTVFGTGTKVTVLGSRGGGGSGGGGSGGGGSLEMAQVQLQQWGAGLLKPSETLSLTCAVYGGSFSGYYWSWIRQPPGKGLEWIGEINHSGSTNYNPSLKSRVTISVDTSKNQFSLKLSSVTAADTAVYYCARYYPGMDMWGQGTLVTVSS
notes: as for B1

Target: T1, human Fc Receptor-Like 5 (FcRL5), full …
Assay: scFv phage: ELISA on His-tag FcRL5, flow cytometry on FcRL5-overexpressing 3T3 and Raji cells

Binder | binding result
B1 | binds
B2 | binds
B3 | binds
B4 | binds
B5 | binds
B6 | binds
B7 | binds
B8 | binds
B9 | binds
B10 | binds
B11 | binds
B12 | binds
B13 | binds
B14 | binds
B15 | binds
B16 | binds
